This test concerns the target cyclin T1 (native 87 kDa protein of HeLa nuclear extract) (human). The test is described as follows: GST-Tat bead pull-down from HeLa nuclear extract, SDS-PAGE, silver stain.

This is an account of results in patent US6284456, “Transcriptional coactivator that interacts with Tat protein and regulates its binding to TAR RNA, methods for modulating Tat transactivation, and uses therefor” (The Salk Institute for Biological Studies, dated 2001).

cyclin T1 (native 87 kDa protein of HeLa nuclear extract) (human), sequence (chain, as listed by the source limits assumed): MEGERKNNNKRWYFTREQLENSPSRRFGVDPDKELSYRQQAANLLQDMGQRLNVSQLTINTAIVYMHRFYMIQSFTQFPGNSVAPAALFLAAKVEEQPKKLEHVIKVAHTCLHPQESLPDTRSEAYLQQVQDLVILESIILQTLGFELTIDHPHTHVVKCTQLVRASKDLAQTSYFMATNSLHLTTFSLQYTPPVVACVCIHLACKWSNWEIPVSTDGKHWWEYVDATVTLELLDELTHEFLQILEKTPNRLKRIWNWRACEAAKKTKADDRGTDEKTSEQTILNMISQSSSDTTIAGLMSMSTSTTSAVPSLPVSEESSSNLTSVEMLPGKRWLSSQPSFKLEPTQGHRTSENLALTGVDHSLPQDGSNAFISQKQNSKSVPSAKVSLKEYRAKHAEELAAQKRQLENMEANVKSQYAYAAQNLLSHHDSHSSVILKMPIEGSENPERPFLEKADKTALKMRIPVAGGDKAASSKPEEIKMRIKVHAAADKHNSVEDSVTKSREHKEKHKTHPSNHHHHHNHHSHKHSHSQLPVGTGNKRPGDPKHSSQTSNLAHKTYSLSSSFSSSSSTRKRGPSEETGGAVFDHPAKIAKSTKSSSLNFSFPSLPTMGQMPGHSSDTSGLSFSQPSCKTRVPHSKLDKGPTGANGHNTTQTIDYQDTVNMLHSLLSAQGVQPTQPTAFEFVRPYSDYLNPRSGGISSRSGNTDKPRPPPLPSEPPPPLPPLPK

Take MEPVDPRLEPWKHPGSQPKTACTNCYCKKCCFHCQVCFITAALGISYG (other) [GST-Tat-1 K41A (aa 1-48)]: the binding result is recorded as “no binding”.
